Results reported in patent publication US20190225692A1 (JUNO THERAPEUTICS, published 2019).

B1: TCR 28 (codon optimized, cysteine modified version) (TCR, V domains shown)
V domain 1: RKEVEQDPGPFNVPEGATVAFNCTYSNSASQSFFWYRQDCRKEPKLLMSVYSSGNEDGRFTAQLNRASQYISLLIRDSKLSDSATYLCVVRGGGTSYGKLTFGQGTILTVHP
V domain 2: DVKVTQSSRYLVKRTGEKVFLECVQDMDHENMFWYRQDPGLGLRLIYFSYDVKMKEKGDIPEGYSVSREKKERFSLILESASTNQTSMYLCASSLWGRSSGNTIYFGEGSWLTVVE
B2: TCR 55 (codon optimized, cysteine modified version) (TCR)
TCR alpha: GEDVEQSLFLSVREGDSSVINCTYTDSSSTYLYWYKQEPGAGLQLLTYIFSNMDMKQDQRLTVLLNKKDKHLSLRIADTQTGDSAIYFCAVPSGATNKLIFGTGTLLAVQPNIQNPDPAVYQLRDSKSSDKSVCLFTDFDSQTNVSQSKDSDVYITDKCVLDMRSMDFKSNSAVAWSNKSDFACANAFNNSIIPEDTFFPSPESSCDVKLVEKSFETDTNLNFQNLSVIGFRILLLKVAGFNLLMTLRLWSS
TCR beta: EPEVTQTPSHQVTQMGQEVILRCVPISNHLYFYWYRQILGQKVEFLVSFYNNEISEKSEIFDDQFSVERPDGSNFTLKIRSTKLEDSAMYFCASTTRSSYEQYFGPGTRLTVTEDLKNVFPPEVAVFEPSEAEISHTQKATLVCLATGFYPDHVELSWWVNGKEVHSGVCTDPQPLKEQPALNDSRYCLSSRLRVSATFWQNPRNHFRCQVQFYGLSENDEWTQDRAKPVTQIVSAEAWGRADCGFTSESYQQGVLSATILYEILLGKATLYAVLVSALVLMAMVKRKDSRG
B3: TCR 29 (codon optimized, cysteine modified version) (TCR, V domains shown)
V domain 1: AQKITQTQPGMFVQEKEAVTLDCTYDTSDQSYGLFWYKQPSSGEMIFLIYQGSYDEQNATEGRYSLNFQKARKSANLVISASQLGDSAMYFCAMRLNTGTASKLTFGTGTRLQVTL
V domain 2: DGGITQSPKYLFRKEGQNVTLSCEQNLNHDAMYWYRQDPGQGLRLIYYSQIVNDFQKGDIAEGYSVSREKKESFPLTVTSAQKNPTAFYLCASSPWGRATNEQFFGPGTRLTVLE
B4: TCR 30 (codon optimized, cysteine modified version) (TCR, V domains shown)
V domain 1: DAKTTQPPSMDCAEGRAANLPCNHSTISGNEYVYWYRQIHSQGPQYIIHGLKNNETNEMASLIITEDRKSSTLILPHATLRDTAVYYCIVRGTSVLQGNEKLTFGTGTRLTIIP
V domain 2: EPEVTQTPSHQVTQMGQEVILRCVPISNHLYFYWYRQILGQKVEFLVSFYNNEISEKSEIFDDQFSVERPDGSNFTLKIRSTKLEDSAMYFCASSRQPSSGNTIYFGEGSWLTVVE
B5: TCR 20 (codon optimized, cysteine modified version) (TCR, V domains shown)
V domain 1: AQKVTQAQTEISVVEKEDVTLDCVYETRDTTYYLFWYKQPPSGELVFLIRRNSFDEQNEISGRYSWNFQKSTSSFNFTITASQVVDSAVYFCALWTGANNLFFGTGTRLTVIP
V domain 2: GAVVSQHPSRVICKSGTSVKIECRSLDFQATTMFWYRQFPKQSLMLMATSNEGSKATYEQGVEKDKFLINHASLTLSTLTVTSAHPEDSSFYICSASSLARRSYEQYFGPGTRLTVTE
B6: TCR 51 (codon optimized, cysteine modified version) (TCR, V domains shown)
V domain 1: QKEVEQNSGPLSVPEGAIASLNCTYSDRGSQSFFWYRQYSGKSPELIMSIYSNGDKEDGRFTAQLNKASQYVSLLIRDSQPSDSATYLCAVNMRGGGSNYKLTFGKGTLLTVNP
V domain 2: EPEVTQTPSHQVTQMGQEVILRCVPISNHLYFYWYRQILGQKVEFLVSFYNNEISEKSEIFDDQFSVERPDGSNFTLKIRSTKLEDSAMYFCAIASRVSYEQYFGPGTRLTVTE
B7: TCR 53 (codon optimized, cysteine modified version) (TCR, V domains shown)
V domain 1: AQSVAQPEDQVNVAEGNPLTVKCTYSVSGNPYLFWYVQYPNRGLQFLLKYITGDNLVKGSYGFEAEFNKSQTSFHLKKPSALVSDSALYFCAVRDFGSGTYKYIFG
V domain 2: GAGVSQSPRYKVTKRGQDVALRCDPISGHVSLYWYRQALGQGPEFLTYFNYEAQQDKSGLPNDRFSAERPEGSISTLTIQRTEQRDSAMYRCASSGSGTSGYNEQFFGPGTRLTVLE
B8: TCR 15 (codon optimized, cysteine modified version) (TCR, V domains shown)
V domain 1: AQKITQTQPGMFVQEKEAVTLDCTYDTSDQSYGLFWYKQPSSGEMIFLIYQGSYDEQNATEGRYSLNFQKARKSANLVISASQLGDSAMYFCAMKPGGYNKLIFGAGTRLAVHP
V domain 2: DAGVIQSPRHEVTEMGQEVTLRCKPISGHNSLFWYRQTMMRGLELLIYFNNNVPIDDSGMPEDRFSAKMPNASFSTLKIQPSEPRDSAVYFCASSLVGRSRTEQYFGPGTRLTVTE
B9: TCR 26 (codon optimized, cysteine modified version) (TCR, V domains shown)
V domain 1: AQKITQTQPGMFVQEKEAVTLDCTYDTSDQSYGLFWYKQPSSGEMIFLIYQGSYDEQNATEGRYSLNFQKARKSANLVISASQLGDSAMYFCAMRDARNNDMRFGAGTRLTVKP
V domain 2: NAGVTQTPKFRVLKTGQSMTLLCAQDMNHEYMYWYRQDPGMGLRLIHYSVGEGTTAKGEVPDGYNVSRLKKQNFLLGLESAAPSQTSVYFCASSYYASGRNYEQYFGPGTRLTVTE
B10: TCR 16 (codon optimized, cysteine modified version) (TCR, V domains shown)
V domain 1: KQEVTQIPAALSVPEGENLVLNCSFTDSAIYNLQWFRQDPGKGLTSLLLIQSSQREQTSGRLNASLDKSSGRSTLYIAASQPGDSATYLCAVRPANNNDMRFGAGTRLTVKP
V domain 2: DVKVTQSSRYLVKRTGEKVFLECVQDMDHENMFWYRQDPGLGLRLIYFSYDVKMKEKGDIPEGYSVSREKKERFSLILESASTNQTSMYLCASSLWGRSNQPQHFGDGTRLSILE
B11: TCR 19 (codon optimized, cysteine modified version) (TCR, V domains shown)
V domain 1: AQKITQTQPGMFVQEKEAVTLDCTYDTSDQSYGLFWYKQPSSGEMIFLIYQGSYDEQNATEGRYSLNFQKARKSANLVISASQLGDSAMYFCAMRENTGTASKLTFGTGTRLQVTL
V domain 2: DVKVTQSSRYLVKRTGEKVFLECVQDMDHENMFWYRQDPGLGLRLIYFSYDVKMKEKGDIPEGYSVSREKKERFSLILESASTNQTSMYLCASSSWGQSTGEQYFGPGTRLTVTE
B12: TCR 25 (codon optimized, cysteine modified version) (TCR, V domains shown)
V domain 1: AQKITQTQPGMFVQEKEAVTLDCTYDTSDQSYGLFWYKQPSSGEMIFLIYQGSYDEQNATEGRYSLNFQKARKSANLVISASQLGDSAMYFCAMREGSLTGGGNKLTFGTGTQLKVEL
V domain 2: DVKVTQSSRYLVKRTGEKVFLECVQDMDHENMFWYRQDPGLGLRLIYFSYDVKMKEKGDIPEGYSVSREKKERFSLILESASTNQTSMYLCASSLWGQSNQPQHFGDGTRLSILE

Columns and labels:
[1] = target: T1, HLA-A2/E6 (29-38) tetramer (human; HPV 16); assay: tetramer flow cytometry; transfected 1:1 CD4+ and CD4+/CD8+ Jurkat-derived cells;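 further: cell mixtures transiently transfected with TCR-encoding plasmids, analysed by flow cytometry 48 h later after HLA-A*02:01 E6 tetramer staining combined with anti-CD8 antibody co-staining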
T1 construct: also called E6(29-38) peptide-MHC tetramer; E6(29-38)-loaded tetramer
Method: (§1) For transfection, the CD4+ and CD4+/CD8+ cell mixtures were transiently transfected with TCR-encoding plasmids and 48 hours after transfection, cells were assessed by flow cytometry for (1) binding of the target peptide in the context of an MHC molecule (HLA:A02:01) by staining with an E6(29-38) peptide- or an E7(11-19) peptide-MHC tetramer reagent, and/or (2) CD8+ independent binding of the target by co-staining the tetramer-labeled cells with an anti-CD8 antibody.

[2] = target: T2, HLA-A2/E7 (11-19) tetramer (human; HPV 16); assay: as above;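 further: cells transiently transfected with TCR plasmids, stained 48 h later with HLA-A*02:01 peptide-MHC tetramer plus anti-CD8 antibody, read by flow cytometry to assess CD8-independent tetramer binding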
T2 construct: also called E7(11-19) peptide-MHC tetramer; E7 (11-19)-loaded tetramer
Method: as §1

Row | Binder | % cells in E6 tet+/CD8+ quadrant [1] [%] | % cells in E6 tet+/CD8- quadrant [1] [%] | % cells in E6 tet-/CD8+ quadrant [1] [%] | % cells in E6 tet-/CD8- quadrant [1] [%] | % cells in E7 tet+/CD8+ quadrant [2] [%] | % cells in E7 tet+/CD8- quadrant [2] [%] | % cells in E7 tet-/CD8+ quadrant [2] [%] | % cells in E7 tet-/CD8- quadrant [2] [%]
1 | B1 | 13.1 | 0.15 | 31.4 | 55.4 |  |  |  | 
2 | B2 |  |  |  |  | 1.45 | 0.28 | 50.4 | 47.9
3 | B3 | 35.6 | 44.5 | 2 | 17.9 |  |  |  | 
4 | B4 | 31 | 0.74 | 13.9 | 54.3 |  |  |  | 
5 | B5 | 38.2 | 34.1 | 5.17 | 22.6 |  |  |  | 
6 | B6 |  |  |  |  | 5.7 | 2.06 | 27.5 | 64.7
7 | B7 |  |  |  |  | 3.35 | 0.43 | 28.7 | 67.5
8 | B8 | 21.4 | 40.2 | 13.6 | 24.8 |  |  |  | 
9 | B9 | 42.3 | 47.4 | 1.58 | 8.73 |  |  |  | 
10 | B10 | 35.6 | 28.2 | 9.51 | 26.7 |  |  |  | 
11 | B11 | 35.5 | 20.8 | 7.71 | 36 |  |  |  | 
12 | B12 | 34 | 14.7 | 10.2 | 41.1 |  |  |  | 
